Measured values published in patent US20240288416.

Experiments:
[1] = target: green fluorescent protein (GFP) carrying an ssrA tag at the C-terminus
[2] = target: T1, substrate 1 (S1)
T1 chain: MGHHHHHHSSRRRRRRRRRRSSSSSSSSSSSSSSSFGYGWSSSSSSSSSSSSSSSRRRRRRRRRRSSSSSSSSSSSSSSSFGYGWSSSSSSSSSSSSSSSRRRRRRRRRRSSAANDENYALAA

B1: Valosin-containing protein-like ATPase of Thermoplasma acidophilum (protein)
chain: MESNNGIILRVAEANSTDPGMSRVRLDESSRRLLDAEIGDVVEIEKVRKTVGRVYRARPEDENKGIVRIDSVMRNNCGASIGDKVKVRKVRTEIAKKVTLAPIIRKDQRLKFGEGIEEYVQRALIRRPMLEQDNISVPGLTLAGQTGLLFKVVKTLPSKVPVEIGEETKIEIREEPASEVLEEVSRISYEDIGGLSEQLGKIREMIELPLKHPELFERLGITPPKGVILYGPPGTGKTLIARAVANESGANFLSINGPEIMSKYYGQSEQKLREIFSKAEETAPSIIFIDEIDSIAPKREEVQGEVERRVVAQLLTLMDGMKERGHVIVIGATNRIDAIDPALRRPGRFDREIEIGVPDRNGRKEILMIHTRNMPLGMSEEEKNKFLEEMADYTYGFVGADLAALVRESAMNALRRYLPEIDLDKPIPTEILEKMVVTEDDFKNALKSIEPSSLREVMVEVPNVHWDDIGGLEDVKREIKETVELPLLKPDVFKRLGIRPSKGFLLYGPPGVGKTLLAKAVATESNANFISIKGPEVLSKWVGESEKAIREIFKKAKQVAPAIVFLDEIDSIAPRRGTTSDSGVTERIVNQLLTSLDGIEVMNGVVVIGATNRPDIMDPALLRAGRFDKLIYIPPPDKEARLSILKVHTKNMPLAPDVDLNDIAQRTEGYVGADLENLCREAGMNAYRENPDATSVSQKNFLDALKTIRPSVDEEVIKFYRTLSETMSKSVSERRKQLQDQGLYL
[1]
  average dwell time of GFP blockades at 6.0 mM ATP: decreased 10-fold to 2.4±1.7 ms
  average dwell time of current blockades (inactive proteasome-nanopore, VAT, ATP 2.0 mM): average dwell time is 22.1±20.2 ms
[2]
  Ires % during VAT-assisted translocation through the inactive proteasome-nanopore (VAT 20.0 µM, ATP 2.0 mM): Ires %=83.81±0.11
  average dwell time of VAT-assisted translocation events (inactive proteasome-nanopore, ATP 2.0 mM): average dwell time is 5.8±3.9 ms
